Test: yeast display, Sf9 membrane polyspecificity reagent, FACS + sequencing; frameworks hold sequencing errors
Summary of the method: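 A synthetic nanobody library was expressed on Saccharomyces cerevisiae BJ5465 by galactose induction for 36–48 hours. The library was stained for 1 hour at 4 °C with 10% biotinylated, detergent-solubilized Sf9 membrane reagent and enriched with streptavidin microbeads before FACS. Low and high (top ~1%) gates were set on anti-HA fluorescence for expression and streptavidin fluorescence for reagent binding, and each polyreactivity label reflects the gate of origin.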

Sequence	polyreactivity (PSR sort gate)
QVQLVESGGGLVQAGGSLRLSCAASGSTFYGNDMGWYRQAPGKERELVAAISSGGSTNYADSVKGRFTISRDNAKNTVYLQMNSLKPEDTAVYYCAADDTPDTMYGSDYWGQGTQVTVSS	low polyreactivity
QVQLVESGGGLVQAGGSLRLSCAASGSTFDDYALGWYRQAPGKERELVAAISFSSGSTYYADSVKGRFTISRDNAKNTVYLQMNSLKPEDTAVYYCAAEKYGWTYYFSWQEDYWGQGTQVTVSS	high polyreactivity
QVQLVESGGGLVQAGGSLRLSCAASGSTFYNYAMGWYRQAPGKERELVAAITSSGGSTYYADSVKGRFTISRDNAKNTVYLQMNSLKPEDTAVYYCAATRRVRRKSFTYRYDYWGQGTQVTVSS	high polyreactivity
QVQLVESGGGLVQAGGSLRLSCAASGRTCSRYAMGLYRQAPGKERELFAAISKSSGTTSYADSVKGRFSISRDNAKNTVYLQMIRLNPEDTAVYYFAAGITGRYYGVRFSEDYWGQGTQVTVSS	high polyreactivity
QVQLQESGGGQVQAGGSLRLSCAASGYISTHYFMGWYRQAPGKDREFVAGISNGSITNYADSVKGRFTISRDNARNTVYLQMNSLKPEDTAVYYGAAYEWTYVRFGYWGQGTQVTVSG	high polyreactivity
QVQLVESGGGLVQAGGSLRLICAASGRIFSGNTMGWYRQAPGKERELVAAISKSGGRTYYADSVKGRFTISRDNAKYTFYLQMNSLKPEDTAVYYCNADYRSHYLYDYWGQGTQVTVSS	low polyreactivity
QVQLVESGGGLVQAGGSLRLSCAASGRTFRNYAMGWYRQAPGKEREFVAAITGRGGSTYYADSVKGRFTISRDNAKNTVYLQMNSLKPEDTAVYYCAAVSGRTGQRTYYPYYYWGQGTQVTVSS	high polyreactivity
QVHLVESGGGLVQAGGSLRLSCAASGSTLGRYAMGWYRQAPGKERELVAAISWRGGSTYYADSVKGRFTISRDNAKNTDYLQMHSLKPEDTAVYYCADTYRFSEYYYWGQGTQVTVSS	high polyreactivity
QVQLQEIGGSLVQAGGSLRLSGAASGNILVLPPGQVSPGAERELDATITGGSITYYADSVKGRFTISRDNAKNTVYLQMNSLKPEDTAVYYCAAVSLRKSYGYNYWGQGTLVTVSS	high polyreactivity
QDQLVESGGGLVQAGGSLSLSCAASGRNFFHNAMGWYRQAPGKERELVASITSGDGTYYADSVKGRFTISRDNAKNTVYLQMNSMKPEDTEVYSCAAEPGSIAYYYTRVGLYYWGQGTQVTVSS	low polyreactivity
QVQLVESGGGLVQAGGSLRISCAASGSTFYIYSMGWYRQAPGKERELVARISGSGGSTYYADSVKVRFTISRDYAKNTVYLQMNSLKPEDTAVYYCAADDIYKYYLYYAFPYYRYDYWGLGTQVTVSS	low polyreactivity
QVQLVESGGGLVQAGGTLRLSCAASGSIFPRYGMGWYRHAPGKERELVAAISGSGGSTYYADSVKGRFTISRDNAKNTVYLQMNSLKPEDTAVYYCNKLRRRVNRDIDDYWGQRTQVTVSS	high polyreactivity
QVQLVESGGGLVQAGGSLRLSCAASGSTFYYNTMGWYRQAPGKERELVAAISRSGGSTYYADSVKGRFTISRDNAKNTVYLQMNSLKPEDTAVYYCAARIIGARNLYGYWGQGTQVTVSS	high polyreactivity
QVQLVESGGGLVQAGGSLRLSCAASGFTIQRYAMGWSRQAPGKERELVAAITSGGSTYYADSVKGRFTISRDNAKNTVYLQMNSLKPEDTAVYYCAAYYRGRAYISYGYWGQGTQVTVSS	high polyreactivity
QVQLVESGGGLVQAGGSLRLSCAASGRTFAPYAMGWYRQAPGKERELVAAISWSGGSTYYADSVKGRFTISRDNAKNTVYLQMNSLKPEDTAVYYCAADGGQTEFDYWGQGTQVTVSS	high polyreactivity
QVQLVESGGGLVQAGGSLRLSCAASGLTFRRYAMGWYRQAPGKERELVAAISSSGGNTYYADSVKGRFTISRDNAKNTVYLQMNSLQPEDTAVYYCATRYKSPSFDYWGQGTQVTVSS	high polyreactivity
QVQLEESGGGLVQAGGSLRLSCAASGSTFVYNALGWNRQAPGKEREFVAVINWSGGRTYADSVKGRFTISRDNAKTTVYLQMNSLNPDETEVYYCNAERRSYRFALQYRRYDYWGEGTQVTVSS	high polyreactivity
QVQLVESGGGLVQAGGSLRLSCAASGSTFRRNAMGWYRQAPGKERELVASISFSGGSTFYADSVKGRFTISRDNAKNTVYLQMNSLKPEDTAVYYCATRYYYSSYEYWGQGTQVTVSS	high polyreactivity
QVQLVESGGGLVQAVGSLRLSCAASGRIFYPYAMGWYRQAPGKERELVAVITSGTGTYYADSVKGRFTISRDNAKNTVYLQMNSLKQEDTAVYYCAADRWYYRHRSSSYGYDYWGQGTQVTVSS	high polyreactivity
QVQLVESGGGLVQAGGSLRLSCAASGRTFTYYAMGWYRQAPGKERELVAAISSRGGSTYYADSVKGRFTISRDNAKNTVYLQMNSLNPEDTAVYYCAAVHRFTRASRWPDFDYWGQGTQVTVSS	high polyreactivity
QVQLVESGGGLGQAGGSLRLSSAASGRTFVFYAMGWYIQAPGKERELVAAITSSGGRTYYADSVKGRFTISRDNAKNTVYLQMNSLKPEDTAVYYCAAPYYPYKYDSWGQGTQVTGSS	low polyreactivity
QVQLVESGGGLVQAGGSLRLSCAASGRTFRPNAMGWYRQAPGNERELVASITRRGGTTYYADSVKGGFTISRDNAKNTVYLHMNSLKPEDTAVYYCNAPPGYSSTRNGYWGQGTQVTVSS	high polyreactivity

Sequence	polyreactivity (PSR sort gate)
QVQLVESGGGLVQAGGSLRLRGAASGSIFVYYAMGWYRPAPGKERELVASISESDGSTSYADSVKGRFTISRDNAKNTVYLQMNSLKPEDTAVYYCAADPYFYWYSPSFDYWGQGTQVTVSS	low polyreactivity
QVQLVESGGGLVQAGGTLRLSCAASGRIFSRYVMGWYRQAPGKQRELVASISWSGGSTRYADSVKGRFTISRDNAKNTVYVQMNSLKPEDTAVYYCAARFILSKYGSGVRYNYWGQGTQVTVSS	high polyreactivity
QVQLVESGGGLVQAGGSLRLSCAASGNIFAYYAMGWYRQAPGKERELVAGISRRGGNTYYADSVKGRFTISRDNAKNTVYLQMNSLKPEDTAVYYCAAKTYSGQRFDYWGQGTQVTVSS	high polyreactivity
QVQIVESGGGLFQAGGSLRLSCAASGRIFDPYSMGWYRQAPGKERELVASISWSGGRTYYADSVKGRFTISRDNAKNTVYLQMNSLKPEDTAVYYCARRFYKGTSKTNLFDFWGQVTQVTVSS	high polyreactivity
QVQLVESGGGLVQAGGSLRLSCAASGRISQGYAMGWYRQAPGKERELVAVISRSGGSTYYADSVKGRFTISRDNAKNTVYLQMNSVKPEDTAVYYCASRYYWRGYYWGQGTQVTVSS	high polyreactivity
QVQLVESGGGLVQAGGSLRLSCAASGRIFWGNAMGWYRQAPGKERELVAAINWSGGSTYYADSVKGRFTISRDNAKNTVYLQMNTLKPEDTAVYYCAADANGIVRYYYWGQGTQVTVSS	low polyreactivity
QVQLVESVGCLVQAGGSLRLSCAASGFIFGSYTMGWYRPAPGKESELVAAISSSGGNTYYADSVKGRFTISRDHAKNTVYLQMNSLKPEDTAVYYCAVDYIYDDAYNYWGQGTQVTVSS	high polyreactivity
QDQLVESGGGLVQAGGSLRLSCAASGRTFPWYAMGWYRPAPGKERELVAAISTGGSRTYYADSVKGRFTISRDNAKNTVYLQMNSLKPEDTAVYYCNARNTLRDYPYGYWGQGTQVTVSS	high polyreactivity
QVQLVESGGGLVQAGGSLRLSCAASGRTFYGYAMGWYRPAPGKERELVAAIDRGGSTDYADSVKGRFTISRDNAKNTVYLQLNSLKTEDTAVYYCAKGYDYYGRRYYYWGQGTQVTVSS	high polyreactivity
QVQLVESGGGLVQAGGSLRISCAASGSTFSTYAMGSYRTEPGKERELVASISNGGSTNYEDSVKGRFTISRDNAKNTVYLQMNSLKPEDTAVYYFNAESKAKYDYFGQGTQVTVSS	low polyreactivity
QVQLVESGGGLVQAGASLRLSCAASGSIFVLYGMGWYRQAPGKERELVAAISAGITNYADSVKGRFTISRDNAKNTVYLQMNSLKPEDTAVYYCATVDGAYQYTYDFWGQGTQVTVSS	low polyreactivity
QVQLVESGGGLVQAGGSLRLICAASGRIFRYYAMGWYRQAPGKERELVAAISYSGGSTYYADSVKGRFTISRDNEKNTVYLQMNILKPEDTAVYYCNAGSWKSYYSTVRYLTYSMYYWGQGTQVTVSS	high polyreactivity
QVQLVESGGGLVQAGGSLRLSCAASGSIFEPYVMGWYRQAPGKERELVAAIRQTGGSTYYADSVKGRFTISRDNAKNTVFLQMNSLKPEDTAVYYCNAKWYGWQRGTVKYDYWGQGTQVTVSS	low polyreactivity
QVQLVESGGGLVQAGGSLRLSCAASGSIFYGYAMAWYRQAPGKERELVAAITRSGGSTYYADSVKGRFTISRDNAKNTVYLQMNSLKPEDTAVYYCAAVSRSRRMDYWGQGTQVTVSS	high polyreactivity
QVQLVESGGGLVQAGGSLRLSCAASGSIFRLNAMGWYRQAPGKERELVAAITSSGGNTYYADSVKGRFTISRDNAKNTVYLQMNSLKPEDTAVYYCATRAYARWYGYWGQGTQVTVSS	low polyreactivity
QVQVVESGAGLVQAGGSLRISCAASGRNFVANAMGWYRQAPGKERELVAAISIIGAGTYYADSVKGRFTISRDNAKITVYLQMNSLKPEDTAVYYCATQYGWYIFGYWGQGSQVTVSS	high polyreactivity
QVQLVESGGGLVQAGGSLRLSCAASGSTLYWNAMGWYRQAPGKDRELVATINTNGGSTYYADSVKGRFTISRDNAKNTVYLQMNSLKPEDTAVYYCAAQVRQWGYFRYYYWGQGTQVTVSS	high polyreactivity
QVQLVESGGGLVQAGGSLRLSCAASGRTLNYNAMGWYRQAPGKERELVAAITSSGRTYYADSVKGRFTISRDNAKNTVFLQMNSLKPEDTAVYYCAASPYGRSILVRYGYWGQGTQVTVSS	high polyreactivity
QVQLVESGGGLVQAGGSLRLSCAASGGIFGYYAMGWYRQAPGKERELVAAISSSGGSTYYADSVKGRFTISRDNAKNTVYLQMNSLKPEDTAVYYCAAYRKVGGFSRGDYWGQGTQVTVSS	high polyreactivity
QVQLVESGGGLVQAGCSLRLSCAASGFIFGPNAMGWYRQAPGKERELVAAISWIGSSTYYADSVKGRFTISRDNAKNTVYLQMNSLKPQDNAVYYCAADSSERRLMDFDYWGQGTQVTVSS	low polyreactivity
QVQLVESGGGLVQAGGSLRLSCAASGRIIYGYAMGWDRQAPGKEREFVARINVSGTSTFYADSVKGRFTISRDNAKNTVYLQMNSLKTVDTAVYDCAARGLPSNYYYYVHGYIMDHWGQGTQVSVSS	low polyreactivity
